B1: SCNN1D (parent)
chain: FYRLYQDLETHRLPCTSRCPRPCR
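Note: lentivirally expressed fusions sorted by FACS into six bins by GFP to DsRed ratio, PSI derived from sequencing read proportions per bin multiplied by bin number.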

The variants in this data set derive from B1. Description: protein stability index of a GFP-peptide fusion (GPS, HEK-293T) (PSI 1-6); higher = more stable. The settings on record: c terminus: a fixed tail appended.
Consider FYRLYQDLEQHRLPCTSRCPRPCR, for which the protein stability index came to 2.3. Consider FYRLYQDLECHRLPCTSRCPRPCR, for which the protein stability index stood at 1.94. Turning to FYRLYQDLEWHRLPCTSRCPRPCR, the protein stability index was found to be 2.05. Consider FYRLYQDLEVHRLPCTSRCPRPCR, for which the protein stability index turned out to be 1.52. For FYRLYQDLETHRLPCTSRCPVPCR, the protein stability index was 1.63.

FYRLYQDLETHRLPCTSRCPMPCR: the protein stability index is 1.25. Consider FYRLYQDLETHRLPCTSRCPDPCR, for which the protein stability index came to 1.83. Regarding FYRLYQDLETHRLPCTSRCPWPCR, the protein stability index amounted to 2.46. With FYRLYQPLETHRLPCTSRCPRPCR, the protein stability index is 2.44. With FYRLYQELETHRLPCTSRCPRPCR, the protein stability index stood at 2.3.

In the case of FYRLYQILETHRLPCTSRCPRPCR, the protein stability index stood at 3.21. Consider FYRLYQNLETHRLPCTSRCPRPCR, for which the protein stability index stood at 1.89.

Take FYRLYQALETHRLPCTSRCPRPCR: the protein stability index was found to be 1.32.

With FYRLYQHLETHRLPCTSRCPRPCR, the protein stability index was found to be 1.5. As to FNRLYQDLETHRLPCTSRCPRPCR, the protein stability index is 3.63.

As to FIRLYQDLETHRLPCTSRCPRPCR, the protein stability index stood at 2.27. For the variant FTRLYQDLETHRLPCTSRCPRPCR, the protein stability index is 1.81. In the case of FWRLYQDLETHRLPCTSRCPRPCR it was 2.75; in that of FCRLYQDLETHRLPCTSRCPRPCR, 1.55; in that of FARLYQDLETHRLPCTSRCPRPCR, 2.69.

As for FMRLYQDLETHRLPCTSRCPRPCR, the protein stability index stood at 2.4. In the case of FYRLYMDLETHRLPCTSRCPRPCR, the protein stability index was found to be 1.91. Turning to FYRLYKDLETHRLPCTSRCPRPCR, the protein stability index turned out to be 1.35. Next, FYRLYYDLETHRLPCTSRCPRPCR: 1.52; FYFLYQDLETHRLPCTSRCPRPCR: 2.32; FYHLYQDLETHRLPCTSRCPRPCR: 2.38. Consider FYYLYQDLETHRLPCTSRCPRPCR, for which the protein stability index is 1.66.

For FYILYQDLETHRLPCTSRCPRPCR, the protein stability index stood at 1.95. Regarding FYMLYQDLETHRLPCTSRCPRPCR, the protein stability index turned out to be 2.09. Turning to FYRLYQDLETHRIPCTSRCPRPCR, the protein stability index is 2.38.

Consider FYRLYQDLETHRWPCTSRCPRPCR, for which the protein stability index stood at 2.21.

Turning to FYRLYQDLETVRLPCTSRCPRPCR, the protein stability index was 1.98.

For FYRLYQDLETDRLPCTSRCPRPCR, the protein stability index was found to be 2.24. Next, FYRLYQDLETHRLPCTKRCPRPCR: 1.96; FYRLYQDLETHRLPCTCRCPRPCR: 1.65. Turning to FYRLYQDLETHRLPCTWRCPRPCR, the protein stability index was 1.02. As to FYRLYQDLETHRLPCTVRCPRPCR, the protein stability index stood at 4.43. For the variant FYRLYQDLETHRLPCTLRCPRPCR, the protein stability index worked out at 1.5.

Turning to FYRLYQDLETHRLPCTQRCPRPCR, the protein stability index worked out at 2.45. As for FYRLYQDLETHRLPCTSRCYRPCR, the protein stability index was determined as 1.44. FYRLYQDLETHRLPCTSRCRRPCR: the protein stability index is 2.07.

With FYRLYQDLETHRLPCTSRCTRPCR, the protein stability index was determined as 2.88.

As for FYRLYQDLETHRLPGTSRCPRPCR, the protein stability index was determined as 2.47. FYRLYQDLETHRLPMTSRCPRPCR: the protein stability index came out at 1.73. Next, FYRLYQDLETHRLPQTSRCPRPCR: 1.76; FYRPYQDLETHRLPCTSRCPRPCR: 3.47.

Regarding FYRAYQDLETHRLPCTSRCPRPCR, the protein stability index was 3.02. Take FYRCYQDLETHRLPCTSRCPRPCR: the protein stability index turned out to be 1.56. With FYRYYQDLETHRLPCTSRCPRPCR, the protein stability index was determined as 2.14. As for FYRLYQDLETHRLPCTSRCPRYCR, the protein stability index was found to be 1.32. For the variant FYRLYQDLETHRLPCTSRCPRICR, the protein stability index came out at 1.72. As for FYRLYQDLETHRLPCVSRCPRPCR, the protein stability index is 1.94. Regarding FYRLYQDLETHRLPCWSRCPRPCR, the protein stability index came out at 1.51. On to FYRLYQDLETHRLPCLSRCPRPCR, for which the protein stability index was 1.82. FYRLYQDLETHRLPCESRCPRPCR: the protein stability index was 2.5. Turning to FYRLYQDLETHRLPCYSRCPRPCR, the protein stability index turned out to be 1.6.

Consider FYRLYQDLETHNLPCTSRCPRPCR, for which the protein stability index worked out at 2.22. As to FYRLYQDLETHELPCTSRCPRPCR, the protein stability index came to 2.5. In the case of FYRLYQDLETHTLPCTSRCPRPCR, the protein stability index came to 2.1. As to FYRLYQDLETHGLPCTSRCPRPCR, the protein stability index worked out at 2.47. For FYRLYQDLDTHRLPCTSRCPRPCR, the protein stability index is 2.99. Next, FYRLYQDLATHRLPCTSRCPRPCR: 2.06. As for FYRLYQDLFTHRLPCTSRCPRPCR, the protein stability index was found to be 1.46. Turning to FYRLYQDLKTHRLPCTSRCPRPCR, the protein stability index was 2.38. On to FYRLYQDLRTHRLPCTSRCPRPCR, for which the protein stability index is 1.58. Turning to FYRLYQDLMTHRLPCTSRCPRPCR, the protein stability index was 2.87.

As for FYRLYQDLPTHRLPCTSRCPRPCR, the protein stability index was 2.05. With FYRLYQDLQTHRLPCTSRCPRPCR, the protein stability index came to 1.83. In the case of FYRLYQDLETHRLPCTSRGPRPCR it was 2.32; in that of FYRLYQDLETHRLPCTSRYPRPCR, 1.88; in that of FYRLYQDLETHRLPCTSRDPRPCR, 2.03. Take FYRLYQDLETHRLPCTSRTPRPCR: the protein stability index came to 3.26. For FYRLYQDLETHRLPCTSRVPRPCR, the protein stability index stood at 2.1. In the case of FYRLYQDWETHRLPCTSRCPRPCR it was 1.7. FYRLYQDCETHRLPCTSRCPRPCR: the protein stability index was determined as 2.08. Turning to FYRLYQDLETHRLHCTSRCPRPCR, the protein stability index is 1.97. Consider FYRLYQDLETHRLDCTSRCPRPCR, for which the protein stability index amounted to 2.06.

As for FYRLYQDLETHRLWCTSRCPRPCR, the protein stability index is 1.57. Turning to SYRLYQDLETHRLPCTSRCPRPCR, the protein stability index is 3.2. WYRLYQDLETHRLPCTSRCPRPCR: the protein stability index was 2.91. Turning to FYRLYQDLETHRLPCTSYCPRPCR, the protein stability index was determined as 1.78. With FYRLYQDLETHRLPCTSCCPRPCR, the protein stability index turned out to be 1.51.

FYRLYQDLETHRLPCTSICPRPCR: the protein stability index was 1.15. Consider FYRLYQDLETHRLPCTSRCPRPCD, for which the protein stability index was found to be 1.6.

As to FYRLYQDLETHRLPCTSRCPRPCY, the protein stability index came to 1.67.

Turning to FYRLKQDLETHRLPCTSRCPRPCR, the protein stability index is 2.6. For FYRLCQDLETHRLPCTSRCPRPCR, the protein stability index came to 2.13. For FYRLIQDLETHRLPCTSRCPRPCR, the protein stability index worked out at 1.76.

Turning to FYRLWQDLETHRLPCTSRCPRPCR, the protein stability index amounted to 2.08. In the case of FYRLHQDLETHRLPCTSRCPRPCR it was 2.92; in that of FYRLYQDLETHRLPCTSRCPRPPR, 2.43; in that of FYRLYQDLETHRLPCTSRCPRPDR, 3.36.

Turning to FYRLYQDLETHRLPCTSRCPRPIR, the protein stability index was found to be 2.11. Next, FYRLYQDLETHRLPCTSRCPRPMR: 2.41.

These data come from the supplement of paper PMC10567573.
